Tests used:
[1] = target: T1, Murine ortholog of 191P4D12, wild type (on PC3 cells) (mouse, UniProt Q8R007 31-508); assay: FACS on PC3 cells expressing the murine ortholog
T1 construct: whole, on cells; also called mouse 191P4D12
T1 sequence (looked up): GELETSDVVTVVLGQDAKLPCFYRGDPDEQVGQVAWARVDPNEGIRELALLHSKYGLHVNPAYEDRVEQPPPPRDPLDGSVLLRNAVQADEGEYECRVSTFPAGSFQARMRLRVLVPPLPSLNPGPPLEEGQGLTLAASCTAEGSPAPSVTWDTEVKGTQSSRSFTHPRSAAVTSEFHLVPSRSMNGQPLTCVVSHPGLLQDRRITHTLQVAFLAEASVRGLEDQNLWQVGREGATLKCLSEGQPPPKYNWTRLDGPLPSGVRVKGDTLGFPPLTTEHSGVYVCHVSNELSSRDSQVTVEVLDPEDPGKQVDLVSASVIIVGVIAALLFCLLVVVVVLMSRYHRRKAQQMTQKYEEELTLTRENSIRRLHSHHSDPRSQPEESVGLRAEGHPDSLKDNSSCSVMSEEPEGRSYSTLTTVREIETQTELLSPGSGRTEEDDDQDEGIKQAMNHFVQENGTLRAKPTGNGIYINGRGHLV
Excerpt: The 191P4D12 protein of human, cynomolgus, rat and murine origin was overexpressed recombinantly in a PC3 cell line to determine cross-reactivity of Ha22-2(2,4)6.1 to these orthologs. It was shown that Ha22-2(2,4)6.1 strongly cross-reacts with cynomolgus and rat orthologs of 191P4D12 (FIG. 23).

[2] = target: T2, 191P4D12 (aa 1-31, 147-346), mFc-C1C2, fusion protein (human, UniProt Q96NY8 1-346); assay: Western blot of purified mFc fusion proteins (non-reduced SDS-PAGE), probed with Ha22-2(2,4)6.1-biotin and streptavidin-HRP
T2 construct: Expressed in 293T cells and purified; also called C1C2 fusion construct; not shown: murine Fc
T2 sequence: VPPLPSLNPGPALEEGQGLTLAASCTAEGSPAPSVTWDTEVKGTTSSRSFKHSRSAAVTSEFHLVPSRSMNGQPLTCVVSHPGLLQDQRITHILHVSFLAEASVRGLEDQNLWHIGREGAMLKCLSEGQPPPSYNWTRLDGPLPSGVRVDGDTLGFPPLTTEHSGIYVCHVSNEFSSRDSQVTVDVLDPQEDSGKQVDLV
Description: To further corroborate the results set forth in FIG. 10, a Western Blot analysis was performed. Briefly, the entire extracellular portion of 191P4D12 (full length), as well as specific domains set forth in Table VI were expressed in 293T cells as murine Fc fusion proteins and purified. Goat anti-mouse-HRP were used as a control.

B1: Ha22-2(2,4)6.1 MAb (antibody, human IgG1, kappa, V domains shown)
VH: EVQLVESGGGLVQPGGSLRLSCAASGFTFSSYNMNWVRQAPGKGLEWVSYISSSSSTIYYADSVKGRFTISRDNAKNSLSLQMNSLRDEDTAVYYCARAYYYGMDVWGQGTTVTVSS
VL: DIQMTQSPSSVSASVGDRVTITCRASQGISGWLAWYQQKPGKAPKFLIYAASTLQSGVPSRFSGSGSGTDFTLTISSLQPEDFATYYCQQANSFPPTFGGGTKVEIKR
notes: Fully human IgG1 kappa from XenoMouse; Used biotinylated in the Western blot; also called 191P4D12 MAb Ha22-2(2,4)6.1; Ha22-(2,4)6.1 MAb
**Q.** Which results are given for B1?
**A.** EC50 [1]: 70.3 nM; binding result [2]: no binding
